T1: His-tagged human BCMA extracellular domain (human, UniProt Q02223 1-54)
T1 construct: extracellular domain; Coated at 0.4 ug/mL to capture the BCMA-targeting constructs; not shown: His tag
T1 sequence (looked up): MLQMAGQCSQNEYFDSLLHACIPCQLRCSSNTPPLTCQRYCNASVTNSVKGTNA


Key:
[1] = target: recombinant CD16A 158V fused to monomeric human Fc (human, UniProt P08637 17-208); test: ELISA, construct titrated on coated CD16A 158V fused to monomeric human Fc
[2] = target: T2, biotinylated dimeric CD16A antigen (human, UniProt P08637 17-208, limits assumed, biotinylated (site not stated)); test: ELISA, biotinylated dimeric CD16A titrated on coated construct
T2 construct: Soluble antigen; also called soluble CD16A antigen
Method: (§1) For the capturing approach, 96-well ELISA plates (Immuno Maxisorp, Nunc) were coated overnight at 4° C. with His-tagged human EGFR or BCMA extracellular domain at concentrations of 3.0 or 0.4 μg/mL, respectively. After blocking with 3% (w/v) skimmed milk powder dissolved in phosphate buffered saline (PBS), antigen coated plates were used for capturing of different multivalent bispecific engagers at concentrations of 3-5 μg/mL in PBS containing 0.3% (w/v) skimmed milk powder. After washing three times with 300 μL per well of PBS containing 0.1% (v/v) Tween 20, plates were incubated with serial dilutions of biotinylated dimeric or monomeric CD16A antigen in PBS containing 0.3% (w/v) skimmed milk powder for 1.5 h at room temperature. After washing, plates were incubated with the detection conjugate Streptavidin HRP, 1:10,000 diluted in PBS containing 0.3% (w/v) skimmed milk powder for 1 h followed by washing and incubation with tetramethylbenzidine substrate (Seramun) for 1-2 min. Reaction was stopped by addition of 0.5 M H₂SO₄ (100 μL/well). Absorbance was measured at 450 nm using a multiwell plate reader, plotted and EC₅₀ values were determined by fitting a nonlinear regression model to sigmoidal dose-response curves (four parameters logistic fit) using GraphPad Prism software.
(§2) Concentration dependent binding of antibody constructs to coated recombinant CD16A antigen, or of soluble monomeric or dimeric CD16 antigen variants to coated or target antigen captured antibody constructs was analyzed in ELISA. Half maximal binding concentrations (EC₅₀) were determined by fitting a nonlinear regression model to sigmoidal dose-response curves (four parameters logistic fit) using GraphPad Prism software.

[3] = target: T3, biotinylated monomeric CD16A antigen (human, UniProt P08637 17-208, limits assumed, biotinylated (site not stated)); test: ELISA, biotinylated monomeric CD16A titrated on coated construct
T3 construct: Soluble antigen; also called soluble CD16A antigen
Method: as §1, §2

[4] = target: T4, recombinant CD16A 158F fused to monomeric human Fc (human, UniProt P08637 17-208); test: ELISA, construct titrated on coated CD16A 158F fused to monomeric human Fc
T4 construct: also called recombinant CD16 antigen variant; not shown: monomeric human Fc
Method: To assess binding of EGFR/CD16 or BCMA/CD16 antibodies to coated antigen in ELISA, 96-well ELISA plates (Immuno Maxisorp, Nunc) were coated overnight at 4° C. with recombinant CD16 antigen variants fused to monomeric human Fc at a concentration of 1.5 μg/mL in 100 mM carbonate-bicarbonate buffer. After blocking with 3% (w/v) skimmed milk powder dissolved in phosphate buffered saline (PBS) serial dilutions of bispecific antibody constructs were incubated on the antigen coated plates for 1.5 h at room temperature. […] After washing, plates were incubated with tetramethylbenzidine substrate (Seramun) for 1-2 min. Reaction was stopped by addition of 0.5 M H₂SO₄ (100 μL/well). Absorbance was measured at 450 nm using a multiwell plate reader, plotted and EC₅₀ values were determined by fitting a nonlinear regression model to sigmoidal dose-response curves (four parameters logistic fit) using GraphPad Prism software.
as §2

[5] = target: T2, biotinylated dimeric CD16A antigen; test: ELISA, biotinylated dimeric CD16A titrated on construct captured by coated His-tagged human EGFR extracellular domain
Method: as §1, §2

[6] = target: T3, biotinylated monomeric CD16A antigen; test: ELISA, biotinylated monomeric CD16A titrated on construct captured by coated His-tagged human EGFR extracellular domain
Method: as §1, §2

[7] = target: T5, His-tagged human EGFR extracellular domain (human, UniProt P00533 25-645); test: ELISA, construct captured on coated His-tagged human EGFR extracellular domain
T5 construct: extracellular domain; Coated at 3.0 ug/mL to capture the EGFR-targeting constructs; not shown: His tag

[8] = target: T3, biotinylated monomeric CD16A antigen; test: ELISA, biotinylated monomeric CD16A titrated on construct captured by coated His-tagged human BCMA extracellular domain
Method: as §1, §2

[9] = target: T2, biotinylated dimeric CD16A antigen; test: ELISA, biotinylated dimeric CD16A titrated on construct captured by coated His-tagged human BCMA extracellular domain
Method: as §1, §2

[10] = target: T1, His-tagged human BCMA extracellular …; test: ELISA, construct captured on coated His-tagged human BCMA extracellular domain

T2 sequence (P08637 17-208 limits assumed): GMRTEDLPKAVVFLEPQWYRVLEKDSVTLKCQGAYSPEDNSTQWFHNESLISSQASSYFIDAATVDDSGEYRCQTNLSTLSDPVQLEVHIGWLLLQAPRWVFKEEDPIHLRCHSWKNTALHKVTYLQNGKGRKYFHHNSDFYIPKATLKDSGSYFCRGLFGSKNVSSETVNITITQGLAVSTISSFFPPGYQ
T3 sequence (P08637 17-208 limits assumed): as above
Sequence of recombinant CD16A 158V fused to monomeric human Fc (P08637 17-208 F176V): as the sequence (P08637 17-208 limits assumed) above, with F160V counted along it
T4 sequence (P08637 17-208): as the sequence (P08637 17-208 limits assumed) above

Binder	EC50 [1] [nM]	EC50 [2] [nM]	EC50 [3] [nM]	EC50 [4] [nM]	EC50 [5] [nM]	EC50 [6] [nM]	binding result [7]	EC50 [8] [nM]	EC50 [9] [nM]	binding result [10]
scFv-IgAb_47 (bispecific antibody) heavy: QVQLVQSGAEVKKPGESLKVSCKASGYTFTSYYMHWVRQAPGQGLEWMGAIEPMYGSTSYAQKFQGRVTMTRDTSTSTVYMELSSLRSEDTAVYYCARGSAYYYDFADYWGQGTLVTVSSASTKGPSVFPLAPSSKSTSGGTAALGCLVKDYFPEPVTVSWNSGALTSGVHTFPAVLQSSGLYSLSSVVTVPSSSLGTQTYICNVNHKPSNTKVDKKVEPKSCDKTHTCPPCPAPEFEGGPSVFLFPPKPKDTLMISRTPEVTCVVVAVSHEDPEVKFNWYVDGVEVHNAKTKPREEQYNSTYRVVSVLTVLHQDWLNGKEYKCKVSNKALPAPIEKTISKAKGQPREPQVYTLPPSREEMTKNQVSLTCLVKGFYPSDIAVEWESNGQPENNYKTTPPVLDSDGSFFLYSKLTVDKSRWQQGNVFSCSVMHEALHNHYTQKSLSLSPGGGGGSGGGGSQVQLQESGPGLVKPSETLSLTCTVSGGSVSSGSYYWSWIRQPPGKGLEWIGYIYYSGSTNYNPSLKSRVTISVDTSKNQFSLKLSSVTAADTAVYYCARNPISIPAFDIWGQGTMVTVSSGGSGGSGGSGGSGGSGGSQPVLTQPPSVSVAPGKTARITCGGNNIGSKSVHWYQQKPGQAPVLVIYYDSDRPSGIPERFSGSNSGNTATLTISRVEAGDEADYYCQVWDTSSDHVLFGGGTKLTVL light: SYVLTQPSSVSVAPGQTATISCGGHNIGSKNVHWYQQRPGQSPVLVIYQDNKRPSGIPERFSGSNSGNTATLTISGTQAMDEADYYCQVWDNYSVLFGGGTKLTVLGQPKAAPSVTLFPPSSEELQANKATLVCLISDFYPGAVTVAWKADSSPVKAGVETTTPSKQSNNKYAASSYLSLTPEQWKSHRSYSCQVTHEGSTVEKTVAPTECS	0.16	0.89	2	0.18	0.76	1.62	binds	–	–	–
scFv-IgAb_18 (bispecific antibody) heavy: EVQLLESGGGLVQPGGSLRLSCAASGFTFSNYDMAWVRQAPGKGLEWVSSISTRGDITSYRDSVKGRFTISRDNSKNTLYLQMNSLRAEDTAVYYCARQDYYTDYMGFAYWGQGTLVTVSSASTKGPSVFPLAPSSKSTSGGTAALGCLVKDYFPEPVTVSWNSGALTSGVHTFPAVLQSSGLYSLSSVVTVPSSSLGTQTYICNVNHKPSNTKVDKKVEPKSCDKTHTCPPCPAPEFEGGPSVFLFPPKPKDTLMISRTPEVTCVVVAVSHEDPEVKFNWYVDGVEVHNAKTKPREEQYNSTYRVVSVLTVLHQDWLNGKEYKCKVSNKALPAPIEKTISKAKGQPREPQVYTLPPSREEMTKNQVSLTCLVKGFYPSDIAVEWESNGQPENNYKTTPPVLDSDGSFFLYSKLTVDKSRWQQGNVFSCSVMHEALHNHYTQKSLSLSPGGGGGSGGGGSGGGGSGGGGSGGGGSGGGGSSYVLTQPSSVSVAPGQTATISCGGHNIGSKNVHWYQQRPGQSPVLVIYQDNKRPSGIPERFSGSNSGNTATLTISGTQAMDEADYYCQVWDNYSVLFGGGTKLTVLGGSGGSGGSGGSGGSGGSGGSQVQLVQSGAEVKKPGESLKVSCKASGYTFTSYYMHWVRQAPGQGLEWMGAIEPMYGSTSYAQKFQGRVTMTRDTSTSTVYMELSSLRSEDTAVYYCARGSAYYYDFADYWGQGTLVTVSS light: AIQMTQSPSSLSASVGDRVTITCRASEDIYNGLAWYQQKPGKAPKLLIYGASSLQDGVPSRFSGSGSGTEFTLTISSLQPEDEATYYCAGPHKYPLTFGGGTKVEIKRTVAAPSVFIFPPSDEQLKSGTASVVCLLNNFYPREAKVQWKVDNALQSGNSQESVTEQDSKDSTYSLSSTLTLSKADYEKHKVYACEVTHQGLSSPVTKSFNRGEC	0.31	2.31	13.1	0.54	–	–	–	1.98	0.74	binds

Reference: US20240376208A1 (AFFIMED, published 2024)
